The text below walks through data of patent US10081794B2, “System and method for electrospun biodegradable scaffold for bone repair” (New Jersey Institute of Technology, priority 2011, dated 2018).

For this assay, the system named is hMSCs. Briefly: Serum starvation study of PDGF-BB bioactivity (cell proliferation). Format: cell-based, human. The conditions noted are these: Invitrogen versus Prospec Bio. As for the experimental part:
At the initiation of this study, arbitrarily called “Day −2”, a vial of hMSCs was thawed, resuspended in 10% FBS DMEM, and seeded into 96 well TCPS plates at a seeding density of 12,500 cells/cm2 or 4000 cells/well. On “Day −1”, 24 hours following the initial cell seeding, the media in the wells was changed with DMEM prepared with various concentrations of FBS (Table 6). On Day 0, the media was supplemented with various concentrations of PDGF-BB (Prospec Bio or Invitrogen). PDGF-BB supplementation was done either once at Day 0, or continually for every 48-72 hours until Day 7.
At Days 4 and 7 following growth factor induction, cells were harvested for cell proliferation assay. Briefly, cell lysates (n=3 per media and PDGF-BB condition) were prepared by lysing cells in 0.1% Triton X-100. The PicoGreen reagent fluorescently labels double stranded DNA which was correlated to cell number using a standard curve. The PicoGreen reagent was added to the cell lysates and the fluorescence was detected with a plate reader at 485 nm excitation/528 nm emission.

B1: PDGF-BB from Invitrogen: Recombinant human PDGF-BB purchased from Invitrogen, used for subsequent studies (protein, UniProt P01127 82-190, looked up)
Platelet-derived growth …: SLGSLTIAEPAMIAECKTRTEVFEISRRLIDRTNANFLVWPPCVEVQRCSGCCNNRNVQCRPTQVQLRPVQVRKIEIVRKKPIFKKATVTLEDHLACKCETVAAARPVT
B1: the “bioactivity of PDGF-BB (cell proliferation studies)” value is on record as “more bioactive”.
